# Legend:
# [1] = molecular target: AcrIE9 (Pseudomonas aeruginosa); experiment: SEC; preparative SEC of AcrIE9 during purification, HiLoad 26/600 Superdex 75 pg; 300 mM NaCl, 5% glycerol, 2 mM DTT, 20 mM HEPES pH 7.0
# [2] = molecular target: AcrIE9 (Pseudomonas aeruginosa); experiment: SEC; analytical SEC of the pooled dimeric species of AcrIE9 alone, Superdex 200 increase 10/300 GL; 150 mM NaCl, 2 mM DTT, 5% glycerol, 20 mM HEPES pH 7.0
substance,measurement,setting,value
AcrIE9 (natural protein),stoichiometry N,[1],2
same,stoichiometry N,[2],2
